Data reported in publication PMC6201271.

Molecular target: UvrDΔCys(A100C) labeled with Cy3 (E. coli) (UniProt P03018)
Assay: AUC

“E. coli MutL protein (from UniProt P23367 1-615) (natural protein)” showed a stoichiometry N (MutL dimer per UvrD-Cy3 monomer) of 1.
